Data from paper PMC3341331 (PLoS Neglected Tropical Diseases, 2012).

Biological target: recombinant E protein domain III of DENV-2, flag and hexahistidine tagged (Dengue virus type 2, strain 16681 …, UniProt P29990)
Experiment: SPR
Conditions: both partners purified

B1: humanized DB32-6 monoclonal antibody (antibody, V domains shown)
VH: EVQLQQSGAELVKPGASVNLSCTASGFNIKDTYIHWVKQRPEQGLEWIGRIDPENGNAKYDPNFQAKATIAADTSSNTAYLQLSSLTSEDTAVYYCVRTGSFWYFDVWGQGTLVTVSS
VL: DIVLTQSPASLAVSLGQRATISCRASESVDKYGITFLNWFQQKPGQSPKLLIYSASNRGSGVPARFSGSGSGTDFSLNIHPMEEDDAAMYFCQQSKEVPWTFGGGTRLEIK
Kd: 0.18 nM
